Assay [1] concerns the target T1, Recombinant human ectodomain αIIbβ3, activated (high-affinity ligand binding conformation) (human, UniProt P08514 32-993; P05106 27-718, carboxyl groups coupled to the DETA silane layer by EDC/sulfo-NHS).
T1 construct: Also used here for the ELISA plate coated in a buffer with the same cations
As to the kind of experiment: flow cytometry sandwich assay on αIIbβ3 coupled beads (anti-fibrinogen mouse IgG, FITC-labelled detection antibody), apparent Kd.

For assay [2], the target named is T1, Recombinant human ectodomain αIIbβ3, …. Briefly: sandwich ELISA, αIIbβ3 coated on a 96-well plate in a buffer with Mg2+, Mn2+ and Ca2+ (anti-fibrinogen mouse IgG, anti-mouse IgG-HRP). On the procedure:
Fibrinogen ELISA Assay. To ensure similar immobilization levels of recombinant human ectodomain aIIbβ3 between the ELISA plate and integrin coupled magnetic beads, the wells of a 96-well micro plate (Nunc MaxiSorp) were incubated with the same aIIbβ3 concentration per surface area as during the preparation of the magnetic beads, 6.6×10⁴ μg·mL⁻¹·c⁻². Each well was coated with aIIbβ3 or control proteins (BSA and β3−/− platelet lysate) by incubation of 6 μg/μL protein in binding buffer (TRIS buffered saline with 0.05% TWEEN-20 and 1 mM each of MgCl₂, MnCl₂ and CaCl₂)) at 4° C. overnight. Incubation of 3% skim milk (ED Millipore) and 2% TWEEN-20 for 1 hour at 37° C. was used for blocking. The concentration of aIIbβ3 per surface area of bead used when coating SAM coated beads is 6.6×10⁴ μg·mL⁻¹·cm⁻², therefore the wells of 96 well plates used were coated with the same density EDC/NHS quenching achieved by increase pH to 8.6. Bead concentration for synthesis: 6×10⁹ beads·mL⁻¹; Integrin-bead reaction concentration=250 μg·mL⁻¹; Integrin Used=6.6×10⁴ μg·mL⁻¹·cm⁻²; Well Surface Area (50 μL)=0.93 cm²; Concentration/wee for ELISA=6×10⁴ μg·mL⁻¹ (6 μL/well in 50 μL total volume); Stock [αIIbβ3]=5×10⁵ μg·mL⁻¹.
Fibrinogen binding. […] The OPD peroxidase reaction was stopped after 1 hour with 2 M H₂SO₄ and the absorbance was read at 492 nm. […]

For assay [3] the target is unchanged. Briefly: flow cytometry dose-response of Alexa488-fibrinogen on activated αIIbβ3 beads, DETA signal subtracted, one site specific binding fit. On the procedure:
3 μL of 1×10⁸ beads/mL were mixed with the desired concentration of fluorescently labelled antibody or ligand to a final volume of 100 μL in PBS and incubated for 1 h. Following incubation, the samples were diluted to a final volume of 1 mL and flow cytometrically analyzed. Samples that were compared with one another were run on the same instrument under the same instrumental conditions (signal gain, flow rate etc.). Any differences in absolute mean fluorescence intensity (MFI) value between different experiments was due to variance between the two.
αIIbβ3 Coupled Bead Flow Cytometry Analysis. […] Ferromagnetic silica particles at each stage of the coating fabrication process were analyzed with flow cytometry for binding to (FIGS. 2A and 2B) PSI E1, and (FIG. 2C to 2F) fibrinogen. […] After the activation step, the beads were analyzed with flow cytometry for binding of Alexa488™ labelled fibrinogen (native αIIbβ3 ligand) and PAC-1 (an antibody specific for the active upright conformation of αIIbβ3) (See Table 2, FIGS. 2G to 2I). […] All analyses conducted as n≥3, data presented as mean±SD, analyzed with a two-tailed t-test, ns=not significant *P<0.05, **P<0.01, ***P<0.001 and ****P<0.0001.

T1 sequence (P08514 other isoform, or with tags, fused parts or gaps limits assumed, chain 1 of 2): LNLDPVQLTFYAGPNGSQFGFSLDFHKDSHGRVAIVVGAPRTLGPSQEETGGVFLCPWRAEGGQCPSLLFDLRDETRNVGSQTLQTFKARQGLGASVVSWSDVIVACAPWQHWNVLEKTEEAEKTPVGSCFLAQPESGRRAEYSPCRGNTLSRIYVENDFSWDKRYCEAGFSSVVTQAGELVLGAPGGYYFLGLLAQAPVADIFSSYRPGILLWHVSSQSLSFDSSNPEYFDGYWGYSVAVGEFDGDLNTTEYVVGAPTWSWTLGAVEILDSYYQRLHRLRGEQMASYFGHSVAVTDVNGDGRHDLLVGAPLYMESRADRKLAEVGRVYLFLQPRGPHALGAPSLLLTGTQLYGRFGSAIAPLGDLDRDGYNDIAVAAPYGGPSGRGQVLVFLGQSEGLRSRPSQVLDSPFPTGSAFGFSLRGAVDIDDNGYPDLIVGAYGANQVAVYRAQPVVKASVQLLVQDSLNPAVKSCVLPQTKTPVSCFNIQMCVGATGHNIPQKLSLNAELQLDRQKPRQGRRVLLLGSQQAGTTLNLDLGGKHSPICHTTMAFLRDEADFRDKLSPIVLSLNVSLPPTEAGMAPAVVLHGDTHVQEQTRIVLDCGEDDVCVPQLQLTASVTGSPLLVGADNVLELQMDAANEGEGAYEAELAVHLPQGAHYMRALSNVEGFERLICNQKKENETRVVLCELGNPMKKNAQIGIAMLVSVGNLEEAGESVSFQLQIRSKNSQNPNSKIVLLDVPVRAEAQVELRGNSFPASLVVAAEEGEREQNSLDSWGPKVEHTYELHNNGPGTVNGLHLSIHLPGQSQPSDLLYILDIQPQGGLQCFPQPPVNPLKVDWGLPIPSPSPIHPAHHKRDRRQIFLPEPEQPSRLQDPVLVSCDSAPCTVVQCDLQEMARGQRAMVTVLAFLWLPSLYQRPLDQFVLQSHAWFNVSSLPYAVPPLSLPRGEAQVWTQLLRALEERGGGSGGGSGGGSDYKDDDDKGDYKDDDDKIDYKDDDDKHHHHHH
T1 sequence (P05106 other isoform, or with tags, fused parts or gaps limits assumed, chain 2 of 2): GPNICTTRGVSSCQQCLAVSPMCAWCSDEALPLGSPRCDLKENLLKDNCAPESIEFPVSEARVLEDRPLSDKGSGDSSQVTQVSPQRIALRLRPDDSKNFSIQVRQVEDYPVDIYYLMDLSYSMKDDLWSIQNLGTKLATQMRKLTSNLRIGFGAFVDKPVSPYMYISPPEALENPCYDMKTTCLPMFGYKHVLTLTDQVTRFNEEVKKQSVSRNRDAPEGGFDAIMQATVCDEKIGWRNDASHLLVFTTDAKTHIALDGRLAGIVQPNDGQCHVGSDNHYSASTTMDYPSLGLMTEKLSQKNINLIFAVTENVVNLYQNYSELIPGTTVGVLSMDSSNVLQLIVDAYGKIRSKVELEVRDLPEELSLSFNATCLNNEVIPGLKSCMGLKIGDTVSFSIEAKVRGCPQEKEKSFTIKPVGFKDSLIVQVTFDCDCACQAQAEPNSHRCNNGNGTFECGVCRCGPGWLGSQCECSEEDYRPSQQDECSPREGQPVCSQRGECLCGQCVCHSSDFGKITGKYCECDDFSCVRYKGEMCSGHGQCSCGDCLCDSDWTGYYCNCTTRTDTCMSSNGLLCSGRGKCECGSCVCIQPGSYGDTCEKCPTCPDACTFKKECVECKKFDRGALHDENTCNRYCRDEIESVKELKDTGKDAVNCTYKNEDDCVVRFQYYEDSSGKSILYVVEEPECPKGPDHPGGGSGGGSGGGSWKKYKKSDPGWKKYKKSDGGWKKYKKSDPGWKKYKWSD

B1: Fibrinogen (ligand)
alpha: ADSGEGDFLAEGGGVRGPRVVERHQSACKDSDWPFCSDEDWNYKCPSGCRMKGLIDEVNQDFTNRINKLKNSLFEYQKNNKDSHSLTTNIMEILRGDFSSANNRDNTYNRVSEDLRSRIEVLKRKVIEKVQHIQLLQKNVRAQLVDMKRLEVDIDIKIRSCRGSCSRALAREVDLKDYEDQQKQLEQVIAKDLLPSRDRQHLPLIKMKPVPDLVPGNFKSQLQKVPPEWKALTDMPQMRMELERPGGNEITRGGSTSYGTGSETESPRNPSSAGSWNSGSSGPGSTGNRNPGSSGTGGTATWKPGSSGPGSTGSWNSGSSGTGSTGNQNPGSPRPGSTGTWNPGSSERGSAGHWTSESSVSGSTGQWHSESGSFRPDSPGSGNARPNNPDWGTFEEVSGNVSPGTRREYHTEKLVTSKGDKELRTGKEKVTSGSTTTTRRSCSKTVTKTVIGPDGHKEVTKEVVTSEDGSDCPEAMDLGTLSGIGTLDGFRHRHPDEAAFFDTASTGKTFPGFFSPMLGEFVSETESRGSESGIFTNTKESSSHHPGIAEFPSRGKSSSYSKQFTSSTSYNRGDSTFESKSYKMADEAGSEADHEGTHSTKRGHAKSRPVRGIHTSPLGKPSLSP
beta: QGVNDNEEGFFSARGHRPLDKKREEAPSLRPAPPPISGGGYRARPAKAAATQKKVERKAPDAGGCLHADPDLGVLCPTGCQLQEALLQQERPIRNSVDELNNNVEAVSQTSSSSFQYMYLLKDLWQKRQKQVKDNENVVNEYSSELEKHQLYIDETVNSNIPTNLRVLRSILENLRSKIQKLESDVSAQMEYCRTPCTVSCNIPVVSGKECEEIIRKGGETSEMYLIQPDSSVKPYRVYCDMNTENGGWTVIQNRQDGSVDFGRKWDPYKQGFGNVATNTDGKNYCGLPGEYWLGNDKISQLTRMGPTELLIEMEDWKGDKVKAHYGGFTVQNEANKYQISVNKYRGTAGNALMDGASQLMGENRTMTIHNGMFFSTYDRDNDGWLTSDPRKQCSKEDGGGWWYNRCHAANPNGRYYWGGQYTWDMAKHGTDDGVVWMNWKGSWYSMRKMSMKIRPFFPQQ
gamma: YVATRDNCCILDERFGSYCPTTCGIADFLSTYQTKVDKDLQSLEDILHQVENKTSEVKQLIKAIQLTYNPDESSKPNMIDAATLKSRKMLEEIMKYEASILTHDSSIRYLQEIYNSNNQKIVNLKEKVAQLEAQCQEPCKDTVQIHDITGKDCQDIANKGAKQSGLYFIKPLKANQQFLVYCEIDGSGNGWTVFQKRLDGSVDFKKNWIQYKEGFGHLSPTGTTEFWLGNEKIHLISTQSAIPYALRVELEDWNGRTSTADYAMFKVGPEADKYRLTYAYFAGGDAGDAFDGFDFGDDPSDKFFTSHNGMQFSTWDNDNDKFEGNCAEQDGSGWWMNKCHAGHLNGVYYQGGTYSKASTPNGYDNGIIWATWKTRWYSMKKTTMKIIPFNRLTIGEGQQHHLGGAKQAGDV
modifications: Alexa 488 dye on lysines (positions not stated) in the results at the 2nd table and paragraph 103; unlabelled in the sandwich assay of paragraph 112. The native protein is a disulfide-linked dimer of the three chains; each chain is given once.
notes: It calls the protein 'bivalent fibrinogen'; also called Fg; Alexa488 labelled fibrinogen
As for B1, the Kd was found to be 210 nM in assay [1], 2200 nM in assay [2] and 78 nM in assay [3].
